Source: article PMC9482650, “Quantitative fragmentomics allow affinity mapping of interactomes” (Nature Communications, 2022)

T1: CARD11, Q9BXL7
T1 sequence (Q9BXL7 662-765, limits assumed, looked up): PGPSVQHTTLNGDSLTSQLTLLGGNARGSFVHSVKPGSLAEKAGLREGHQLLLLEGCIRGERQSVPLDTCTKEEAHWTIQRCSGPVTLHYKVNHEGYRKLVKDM

T2: GRIP1_4, Q9Y3R0
T2 sequence (Q9Y3R0 467-571, limits assumed, looked up): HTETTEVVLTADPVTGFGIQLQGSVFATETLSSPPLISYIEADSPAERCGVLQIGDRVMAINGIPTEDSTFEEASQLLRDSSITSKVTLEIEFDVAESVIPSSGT

T3: LIN7C, Q9NUP9
T3 sequence (Q9NUP9 88-185, limits assumed, looked up): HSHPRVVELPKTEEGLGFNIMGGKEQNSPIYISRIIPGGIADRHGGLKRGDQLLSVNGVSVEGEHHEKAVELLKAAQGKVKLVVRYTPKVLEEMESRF

T4: MPDZ_12, O75970
T4 sequence (O75970 1857-1958, limits assumed, looked up): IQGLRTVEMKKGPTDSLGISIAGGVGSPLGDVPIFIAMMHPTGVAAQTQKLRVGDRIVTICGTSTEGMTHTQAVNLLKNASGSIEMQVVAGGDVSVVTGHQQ

T5: PARD3B_1, Q8TEW8
T5 sequence (Q8TEW8 196-299, limits assumed, looked up): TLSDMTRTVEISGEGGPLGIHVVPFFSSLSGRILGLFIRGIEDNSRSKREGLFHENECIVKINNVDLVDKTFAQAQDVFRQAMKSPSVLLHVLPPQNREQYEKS

T6: RHPN1, Q8TCX5
T6 sequence (Q8TCX5 508-602, limits assumed, looked up): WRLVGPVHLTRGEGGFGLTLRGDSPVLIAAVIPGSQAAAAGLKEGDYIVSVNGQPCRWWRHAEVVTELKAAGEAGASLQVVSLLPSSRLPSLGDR

T7: SHANK1, Q9Y566
T7 sequence (Q9Y566 658-767, limits assumed, looked up): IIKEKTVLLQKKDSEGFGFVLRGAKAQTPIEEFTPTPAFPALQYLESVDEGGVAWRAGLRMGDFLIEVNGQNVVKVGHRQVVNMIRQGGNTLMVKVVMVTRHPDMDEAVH

T8: SIPA1L2, Q9P2F8
T8 sequence (Q9P2F8 945-1036, limits assumed, looked up): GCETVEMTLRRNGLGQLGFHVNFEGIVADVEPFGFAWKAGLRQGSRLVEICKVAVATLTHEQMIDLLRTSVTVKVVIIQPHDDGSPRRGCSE


Legend:
Assay in all cases: holdup assay
Parameters in all cases: key: below the threshold = too weak to quantify, mostly under pKd 3.1 to 4
Conditions in all cases: plain residues with an end cap or a label only (N-terminal biotin on a linker: ado-ado)
[1] = biological target: T1, CARD11, Q9BXL7
[2] = biological target: DLG1_3, Q12959
Chain of DLG1_3, Q12959 (Q12959 457-571): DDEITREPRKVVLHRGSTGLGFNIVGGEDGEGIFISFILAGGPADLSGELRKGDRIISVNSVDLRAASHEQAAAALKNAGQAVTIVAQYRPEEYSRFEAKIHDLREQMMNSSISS

[3] = biological target: DLG4_1, P78352
Chain of DLG4_1, P78352 (P78352 62-152): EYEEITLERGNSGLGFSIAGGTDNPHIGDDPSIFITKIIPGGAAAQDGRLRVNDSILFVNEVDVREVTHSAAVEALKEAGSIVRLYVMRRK

[4] = biological target: FRMPD2_2, Q68DX3
Chain of FRMPD2_2, Q68DX3 (Q68DX3 944-1038): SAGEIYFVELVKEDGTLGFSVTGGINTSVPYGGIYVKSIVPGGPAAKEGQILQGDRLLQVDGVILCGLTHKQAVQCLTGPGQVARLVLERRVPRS

[5] = biological target: FRMPD4, Q14CM0
Chain of FRMPD4, Q14CM0 (Q14CM0 67-160): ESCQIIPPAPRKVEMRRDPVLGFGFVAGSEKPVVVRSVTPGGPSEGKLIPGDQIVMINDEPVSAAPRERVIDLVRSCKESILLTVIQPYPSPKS

[6] = biological target: GORASP1, Q9BQQ3
Chain of GORASP1, Q9BQQ3 (Q9BQQ3 1-208): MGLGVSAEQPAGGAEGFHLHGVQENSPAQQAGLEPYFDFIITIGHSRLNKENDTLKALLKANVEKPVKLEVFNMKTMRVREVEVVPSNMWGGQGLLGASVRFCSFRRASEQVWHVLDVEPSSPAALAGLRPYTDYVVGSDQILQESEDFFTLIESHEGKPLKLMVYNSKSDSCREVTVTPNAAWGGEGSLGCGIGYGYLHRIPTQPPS

[7] = biological target: GRID2IP_2, A4D2P6
Chain of GRID2IP_2, A4D2P6 (A4D2P6 272-370): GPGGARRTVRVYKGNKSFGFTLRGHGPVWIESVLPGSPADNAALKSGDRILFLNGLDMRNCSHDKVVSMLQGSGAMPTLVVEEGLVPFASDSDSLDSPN

[8] = biological target: T2, GRIP1_4, Q9Y3R0
[9] = biological target: GRIP2_4, Q9C0E4
Chain of GRIP2_4, Q9C0E4 (Q9C0E4 446-548): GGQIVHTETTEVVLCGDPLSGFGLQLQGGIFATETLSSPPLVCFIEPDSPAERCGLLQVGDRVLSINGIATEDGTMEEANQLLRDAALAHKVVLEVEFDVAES

[10] = biological target: HTRA2, O43464
Chain of HTRA2, O43464 (O43464 355-458): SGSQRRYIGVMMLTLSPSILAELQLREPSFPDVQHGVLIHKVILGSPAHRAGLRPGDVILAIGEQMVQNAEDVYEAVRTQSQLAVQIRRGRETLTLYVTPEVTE

[11] = biological target: Inadl_1, Q8NI35
Chain of Inadl_1, Q8NI35 (Q8NI35 113-229): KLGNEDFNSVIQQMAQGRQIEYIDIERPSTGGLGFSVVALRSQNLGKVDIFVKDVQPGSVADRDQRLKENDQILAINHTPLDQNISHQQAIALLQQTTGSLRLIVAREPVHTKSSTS

[12] = biological target: Inadl_2, Q8NI35
Chain of Inadl_2, Q8NI35 (Q8NI35 238-335): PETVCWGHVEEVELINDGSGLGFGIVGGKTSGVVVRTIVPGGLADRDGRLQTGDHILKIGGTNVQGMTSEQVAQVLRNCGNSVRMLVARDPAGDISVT

[13] = biological target: Inadl_6, Q8NI35
Chain of Inadl_6, Q8NI35 (Q8NI35 1058-1167): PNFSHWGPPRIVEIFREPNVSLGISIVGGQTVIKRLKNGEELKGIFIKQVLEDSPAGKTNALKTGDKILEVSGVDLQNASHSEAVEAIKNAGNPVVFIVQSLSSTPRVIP

[14] = biological target: LDB3, O75112
Chain of LDB3, O75112 (O75112 1-94): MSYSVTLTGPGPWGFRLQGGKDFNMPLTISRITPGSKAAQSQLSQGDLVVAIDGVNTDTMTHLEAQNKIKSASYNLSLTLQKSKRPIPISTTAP

[15] = biological target: T3, LIN7C, Q9NUP9
[16] = biological target: LNX1_3, Q8TBB1
Chain of LNX1_3, Q8TBB1 (Q8TBB1 500-596): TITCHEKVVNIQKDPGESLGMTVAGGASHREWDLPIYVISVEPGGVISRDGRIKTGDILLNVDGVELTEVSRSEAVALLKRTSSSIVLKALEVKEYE

[17] = biological target: MAGI2_2, Q86UL8
Chain of MAGI2_2, Q86UL8 (Q86UL8 410-522): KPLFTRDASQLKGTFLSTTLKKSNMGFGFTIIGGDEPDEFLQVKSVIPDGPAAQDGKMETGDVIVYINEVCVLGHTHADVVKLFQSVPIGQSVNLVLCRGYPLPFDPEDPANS

[18] = biological target: MAGI2_6, Q86UL8
Chain of MAGI2_6, Q86UL8 (Q86UL8 1141-1229): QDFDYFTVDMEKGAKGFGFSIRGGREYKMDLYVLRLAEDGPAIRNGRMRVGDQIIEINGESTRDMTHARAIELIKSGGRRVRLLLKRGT

[19] = biological target: T4, MPDZ_12, O75970
[20] = biological target: NHERF2_2, Q15599
Chain of NHERF2_2, Q15599 (Q15599 142-238): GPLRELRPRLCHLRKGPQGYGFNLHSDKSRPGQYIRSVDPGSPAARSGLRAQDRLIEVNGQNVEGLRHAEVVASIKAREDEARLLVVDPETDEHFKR

[21] = biological target: NHERF4_1, Q86UT5-2
Chain of NHERF4_1, Q86UT5-2 (Q86UT5 other isoform, or with tags, fused parts or gaps): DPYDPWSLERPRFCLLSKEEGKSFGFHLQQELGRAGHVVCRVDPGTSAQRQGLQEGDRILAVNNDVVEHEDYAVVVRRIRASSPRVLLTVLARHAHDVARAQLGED

[22] = biological target: NHERF4_4, Q86UT5
Chain of NHERF4_4, Q86UT5 (Q86UT5 464-550): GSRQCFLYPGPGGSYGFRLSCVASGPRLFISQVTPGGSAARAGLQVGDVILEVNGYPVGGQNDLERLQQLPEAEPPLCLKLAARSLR

[23] = biological target: T5, PARD3B_1, Q8TEW8
[24] = biological target: PTPN3, P26045
Chain of PTPN3, P26045 (P26045 505-587): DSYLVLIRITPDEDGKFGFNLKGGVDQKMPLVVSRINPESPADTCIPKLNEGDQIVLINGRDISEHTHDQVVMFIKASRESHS

[25] = biological target: T6, RHPN1, Q8TCX5
[26] = biological target: SCRIB_3, Q14160
Chain of SCRIB_3, Q14160 (Q14160 999-1103): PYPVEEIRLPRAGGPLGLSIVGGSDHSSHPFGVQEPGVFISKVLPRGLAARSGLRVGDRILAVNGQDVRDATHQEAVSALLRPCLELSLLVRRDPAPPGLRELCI

[27] = biological target: T7, SHANK1, Q9Y566
[28] = biological target: T8, SIPA1L2, Q9P2F8
[29] = biological target: SNX27, Q96L92

Binder | pKd [1] | pKd [2] | pKd [3] | pKd [4] | pKd [5] | pKd [6] | pKd [7] | pKd [8] | pKd [9] | pKd [10] | pKd [11] | pKd [12] | pKd [13] | pKd [14] | pKd [15] | pKd [16] | pKd [17] | pKd [18] | pKd [19] | pKd [20] | also measured
PGKKPEDSRV [SLCO2B1, O94956] | below the threshold | below the threshold | 3.83 | below the threshold | below the threshold | below the threshold | below the threshold | below the threshold | below the threshold | below the threshold | below the threshold | below the threshold | below the threshold | below the threshold | below the threshold | below the threshold | 3.64 | below the threshold | below the threshold | 3.47 | pKd [21]: below the threshold; pKd [22]: below the threshold; pKd [23]: below the threshold; pKd [24]: below the threshold; pKd [25]: 3.85; pKd [26]: below the threshold; pKd [27]: below the threshold; pKd [28]: below the threshold; pKd [29]: 4.43
MLPANYVEAI [NEB, P20929] | below the threshold | below the threshold | below the threshold | below the threshold | below the threshold | 3.7 | below the threshold | below the threshold | below the threshold | below the threshold | below the threshold | below the threshold | below the threshold | below the threshold | below the threshold | below the threshold | below the threshold | below the threshold | below the threshold | below the threshold | pKd [21]: below the threshold; pKd [22]: below the threshold; pKd [23]: below the threshold; pKd [24]: 3.64; pKd [25]: below the threshold; pKd [26]: below the threshold; pKd [27]: below the threshold; pKd [28]: below the threshold; pKd [29]: below the threshold
EPAKETTTNV [SLC2A3, P11169] | below the threshold | 3.6 | 4.12 | 4.11 | 3.52 | below the threshold | 3.65 | below the threshold | below the threshold | below the threshold | below the threshold | below the threshold | below the threshold | below the threshold | 4.05 | below the threshold | 3.51 | 3.97 | below the threshold | 3.69 | pKd [21]: below the threshold; pKd [22]: below the threshold; pKd [23]: below the threshold; pKd [24]: 4.49; pKd [25]: 4.35; pKd [26]: 3.82; pKd [27]: 3.68; pKd [28]: below the threshold; pKd [29]: 4.95

Further lines, with some results ahead:

pKd [1] | pKd [2] | pKd [3] | pKd [4] | pKd [5] | pKd [6] | pKd [7] | pKd [8] | pKd [9] | pKd [10] | pKd [11] | pKd [12] | pKd [13] | pKd [14] | pKd [15] | pKd [16] | pKd [17] | pKd [18] | pKd [19] | pKd [20] | Binder | also measured
below the threshold | 4.18 | 4.44 | 3.82 | 3.57 | below the threshold | 4.17 | below the threshold | below the threshold | below the threshold | below the threshold | below the threshold | 3.85 | below the threshold | 3.98 | below the threshold | 4.25 | 3.97 | below the threshold | 4.11 | TKDKVQETQI [LRRC4, Q9HBW1] | pKd [21]: below the threshold; pKd [22]: 3.95; pKd [23]: 3.76; pKd [24]: 5.05; pKd [25]: 4.84; pKd [26]: 5; pKd [27]: 3.76; pKd [28]: below the threshold; pKd [29]: 5.5
below the threshold | below the threshold | below the threshold | below the threshold | below the threshold | 4.51 | 4.33 | below the threshold | below the threshold | 4.25 | 4.03 | below the threshold | 3.69 | below the threshold | below the threshold | below the threshold | below the threshold | 3.73 | 4.1 | 3.98 | SGDGKTSVWI [GJC1, P36383] | pKd [21]: 3.57; pKd [22]: 4.24; pKd [23]: 4.77; pKd [24]: 4.06; pKd [25]: below the threshold; pKd [26]: 4.21; pKd [27]: 3.55; pKd [28]: below the threshold; pKd [29]: 3.56
